# ± gives the uncertainty stated by the source.
# B1: Histone H1t, residues 44 to 112; numbered along this chain, P22492 (parent)
# chain: VSKLITEALSVSQERVGMSLVALKKALAAAGYDVEKNNSRIKLSLKSLVNKGILVQTRGTGASGSFKLS
# Variants of: B1
# Assay: abundance fitness (aPCA) (normalised: wild type 0, dead -1); higher = more abundant; growth selection in yeast, the domain comes from the species named
# Conditions: Homo sapiens
row,Variant,abundance fitness
1,G31A,-0.202 ± 0.16
2,G31N,-0.357 ± 0.054
3,G31Q,-0.268 ± 0.039
4,G31T,-0.259 ± 0.042
5,G31I,-0.316 ± 0.063
6,G31C,-0.27 ± 0.22
7,G31L,-0.297 ± 0.031
8,V34G,-0.306 ± 0.041
9,V34R,-0.268 ± 0.036
10,V34K,-0.104 ± 0.078
11,K36R,-0.106 ± 0.033
12,K36I,-0.628 ± 0.13
13,K36L,-0.358 ± 0.04
14,A29G,-0.223 ± 0.048
15,A29H,-0.236 ± 0.056
16,A29R,0.002 ± 0.044
17,A29M,-0.097 ± 0.03
18,A29Q,-0.081 ± 0.065
19,A29C,-0.088 ± 0.042
20,A29E,0.066 ± 0.053
21,L27A,-0.506 ± 0.092
22,L27H,-0.838 ± 0.09
23,L27N,-0.906 ± 0.069
24,L27C,-0.394 ± 0.078

row,Variant,abundance fitness
1,L20S,-0.561 ± 0.036
2,L20H,-0.465 ± 0.057
3,L20Q,-0.5 ± 0.065
4,L20P,-0.841 ± 0.06
5,L20W,-0.008 ± 0.038
6,L20N,-0.724 ± 0.061
7,L20T,-0.351 ± 0.046
8,I41F,-0.055 ± 0.031
9,I41Y,-0.43 ± 0.057
10,I41D,-0.742 ± 0.13
11,I41W,-0.113 ± 0.043
12,I41C,-0.439 ± 0.054
13,I41N,-0.542 ± 0.052
14,V21F,-0.142 ± 0.026
15,R58Q,0.036 ± 0.038
16,R58C,-0.121 ± 0.057
17,R58S,0.103 ± 0.035
18,R58N,0.227 ± 0.074
19,R58E,0.028 ± 0.04
20,R58A,0.078 ± 0.031
21,R58K,0.155 ± 0.048
22,R58F,-0.115 ± 0.068
23,G52N,-0.201 ± 0.079
24,G52Q,-0.3 ± 0.048

row,Variant,abundance fitness
1,G52P,-0.39 ± 0.032
2,G52M,-0.199 ± 0.052
3,G52Y,-0.425 ± 0.067
4,G52R,-0.434 ± 0.099
5,E35I,-0.123 ± 0.059
6,E35K,0.05 ± 0.053
7,E35N,-0.064 ± 0.092
8,E35T,-0.061 ± 0.038
9,S47Q,0.02 ± 0.041
10,S47Y,-0.23 ± 0.11
11,K51Y,-1.1 ± 0.34
12,K51N,-0.081 ± 0.11
13,K51W,-0.557 ± 0.13
14,K51H,-0.289 ± 0.14
15,K51Q,-0.065 ± 0.041
16,K51F,-0.557 ± 0.091
17,K46R,-0.053 ± 0.066
18,K46E,-0.053 ± 0.14
19,K46T,-0.209 ± 0.079
20,K46L,-0.178 ± 0.029
21,D33F,0.243 ± 0.059
22,D33N,-0.254 ± 0.13
23,D33S,-0.021 ± 0.042
24,D33P,-0.214 ± 0.037

row,Variant,abundance fitness
1,L43H,0.015 ± 0.043
2,L43N,0.266 ± 0.044
3,L43S,0.034 ± 0.088
4,N50K,-0.108 ± 0.12
5,N50C,-0.311 ± 0.096
6,N50E,0.027 ± 0.07
7,N50D,-0.105 ± 0.12
8,N50H,-0.24 ± 0.11
9,N50M,-0.394 ± 0.096
10,G61L,-0.182 ± 0.035
11,G61D,0.082 ± 0.12
12,G61R,-0.188 ± 0.031
13,G61P,-0.144 ± 0.036
14,G61T,-0.044 ± 0.039
15,G61I,-0.171 ± 0.077
16,G61V,-0.185 ± 0.042
17,G61S,-0.07 ± 0.037
18,S10N,-0.024 ± 0.053
19,S10I,-0.316 ± 0.038
20,S10E,-0.41 ± 0.26
21,S10P,-0.835 ± 0.18
22,S10T,0.016 ± 0.064
23,S19Q,-0.171 ± 0.054
24,S19N,-0.088 ± 0.085

row,Variant,abundance fitness
1,S19C,-0.155 ± 0.062
2,V55D,-0.291 ± 0.11
3,V55A,-0.106 ± 0.064
4,V55I,-0.079 ± 0.049
5,V55L,-0.056 ± 0.028
6,V55Q,-0.127 ± 0.056
7,E14L,-0.71 ± 0.033
8,E14H,-0.373 ± 0.087
9,E14N,-0.508 ± 0.084
10,E14Q,-0.456 ± 0.087
11,E14K,-0.449 ± 0.083
12,E14D,-0.271 ± 0.36
13,E14M,-0.649 ± 0.051
14,S39V,-0.539 ± 0.059
15,S39C,-0.675 ± 0.22
16,S39Y,-0.557 ± 0.23
17,S39G,-0.087 ± 0.044
18,S39K,-0.001 ± 0.045
19,S39L,-0.317 ± 0.028
20,S39F,-0.594 ± 0.067
21,T57F,-0.14 ± 0.04
22,T57C,-0.019 ± 0.047
23,T57W,-0.252 ± 0.049
24,T57N,-0.058 ± 0.057

row,Variant,abundance fitness
1,T57V,-0.052 ± 0.044
2,T57E,0.117 ± 0.084
3,T57K,-0.011 ± 0.045
4,T57R,-0.036 ± 0.032
5,L68F,-0.1 ± 0.03
6,L68C,-0.202 ± 0.057
7,L68M,-0.082 ± 0.037
8,L68N,-0.149 ± 0.069
9,L68A,-0.176 ± 0.044
10,K24R,-0.161 ± 0.045
11,K24W,-0.533 ± 0.064
12,K24E,-0.363 ± 0.054
13,K24G,-0.485 ± 0.071
14,K24C,-0.579 ± 0.091
15,S2T,-0.145 ± 0.19
16,S2L,-0.398 ± 0.029
17,S2A,-0.404 ± 0.3
18,S2N,0.051 ± 0.066
19,S2V,-0.652 ± 0.1
20,S2C,-0.438 ± 0.17
21,S2Q,-0.344 ± 0.15
22,S2F,-0.383 ± 0.03
23,N37M,-0.45 ± 0.28
24,N37L,-0.061 ± 0.11

row,Variant,abundance fitness
1,F66D,0.053 ± 0.12
2,F66L,-0.097 ± 0.028
3,F66N,-0.119 ± 0.079
4,F66A,0.008 ± 0.041
5,F66E,-0.03 ± 0.063
6,F66I,-0.246 ± 0.065
7,A22D,-0.118 ± 0.34
8,A22E,-0.801 ± 0.36
9,A22H,-0.158 ± 0.23
10,A22Q,-0.003 ± 0.16
11,A22W,-0.101 ± 0.3
12,A22I,-0.699 ± 0.11
13,A22S,0.051 ± 0.098
14,V16N,0.042 ± 0.034
15,V16I,-0.058 ± 0.033
16,V16H,-0.031 ± 0.051
17,K42N,-0.379 ± 0.19
18,K42E,0.182 ± 0.038
19,K42S,-0.108 ± 0.031
20,K42R,-0.125 ± 0.041
21,K42P,-0.682 ± 0.029
22,A30M,0.021 ± 0.043
23,A30F,-0.368 ± 0.055

# Reference: the Human Domainome abundance scans (Beltran et al. 2025)
